The text below walks through data of patent US20100266587A1, “Compositions and Methods to Treat Acute Myelogenous Leukemia” (BIOGEN IDEC MA INC., priority 2009, published 2010).

For assay [1], the system named is VLA-4 and VLA-5 adhesion to fibronectin. To be noted: cited from earlier work.
The subject of assay [2] is fibronectin-dependent cell adhesion. The note with it: cited from earlier work.
Assay [3] deals with tumor cell binding to VLA-4 ligands. Description: Maximally attainable inhibition of tumor cell binding to VLA-4 ligands at saturating antibody. Format: cell-based. To be noted: saturating levels of natalizumab (20 μg/mL) vs isotype control. The procedure:
FIGS. 3A and 3B are graphs showing the effect of natalizumab on HL60 and KG1 AML tumor cell adhesion to VLA-4 ligands fibronectin (• FN), vascular adhesion molecule-1-Ig fusion protein (▪ VCAM-Ig), or bone marrow stromal cells (▴ BMSC), in the presence of natalizumab or an isotype control antibody in serial dilutions starting at 20 μg/ml. FIGS. 3C and 3D show inhibition of binding of HL60 and KG1 AML cells to VLA-4 ligands in the presence saturating levels of natalizumab (20 μg/mL) (solid bars) or isotype control (clear bars).
(§1) FIGS. 4A and 4B are graphs showing the effect of natalizumab on H929 and U266 mM tumor cell adhesion to VLA-4 ligands fibronectin (• FN), vascular adhesion molecule-1-Ig fusion protein (▪ VCAM-Ig), or bone marrow stromal cells (▴ BMSC). Adhesion was assayed in the presence of natalizumab or an isotype control antibody in serial dilutions starting at 20 μg/ml.
(§2) FIGS. 5A and 5B are graphs showing the effect of natalizumab on Mec1 and JM1 CLL tumor cell adhesion to VLA-4 ligands fibronectin (• FN), vascular adhesion molecule-1-Ig fusion protein (▪ VCAM-Ig), or bone marrow stromal cells (▴ BMSC). Adhesion was assayed in the presence of natalizumab or an isotype control antibody in serial dilutions starting at 20 μg/ml.
Experiments were conducted to test whether a VLA-4 antagonist can inhibit binding of tumor cells to a VLA-4 ligand. […]

For assay [4], the system named is MM cell line U226. Description: Adhesion mediated drug resistance, MM cells, melphalan. In kind it is cell-based. The procedure: (§3) FIGS. 6A-6D are graphs showing the results of natalizumab on cell adhesion mediated drug resistance. FIG. 6A depicts the percentage of viable HL60 cells remaining after the cells were cocultured for 24 hours with (▪) or without (□) BMSC, then exposed to the chemotherapy drug AraC (cytarabine) for 24 hours. FIG. 6B depicts the percentage of apoptotic cells (Annexin V+, 7AAD) after cocultured HL60 cells were incubated with natalizumab or isotype control antibody for 4 hr., and then exposed to an effective AraC dose as determined from FIG. 6A for 24 hours. FIGS. 6C and 6D show the results of similar experiments conducted with U266 cells exposed to melphalan.

In assay [5] the test system is AML cell line HL60. Briefly: Adhesion mediated drug resistance, HL60 cocultured with BMSC, ara-C, apoptosis. In kind it is cell-based. To be noted: natalizumab combined with ara-C 10 μM, 24 hours. As to the method:
as §3
Culturing the AML cell line HL60 in the presence of BMSC conferred a protective advantage to the cells when treated with the chemotherapeutic agent ara-C, as shown in FIG. 6A. Cells were cultured for 24 hours with (▴) or without (□) BMSC, then exposed to the chemotherapy drug AraC (cytarabine) for 24 hours (FIG. 6A). Cell viability was enhanced by the presence of BMSC.

The test system of assay [6] is P-STAT3. Description: Western blot of coculture-induced survival signaling. In kind it is cell-based. To be noted: cells cocultured with BMSCs, 30 minutes (HL60) or 4 hr (U266). As to the method:
FIG. 7 is a panel of Western blots assaying for P-STAT3, STAT3, P-JNK, JNK, P-MAPK, and MAPK levels in HL60, KG1 or U266 cells grown in suspension or cocultured with BMSCs and natalizumab, as indicated, for 30 minutes (HL60) or 4 hours (U266).
HL60, KG1 or U266 cells were grown in suspension or coculture with BMSCs and natalizumab, as indicated, for 30 minutes (HL60) or 4 hr (U266), and then the cells were separated from BMSCs, and processed for Western blot analysis to determine levels of P-STAT3, STAT3, P-JNK, JNK, P-MAPK, and MAPK (FIG. 7).
Background: In western blotting, separated proteins are transferred to a membrane and probed.

Assay [7] addresses T1, VLA-4 on tumor cell lines (Homo sapiens, UniProt P13612).
T1 construct: VLA-4 expression was observed on all cell lines tested; endogenous in cells; host or cells: HL60, KG1 (AML); U266, H929 (MM); Mec1, JM1 (CLL)
Description: Binding of natalizumab to AML, CLL and MM tumor cell lines by flow cytometry (all lines). As to the method: FIG. 2 is a graph depicting binding of natalizumab to VLA-4 on tumor cell lines as measured by flow cytometry.
(§4) Flow cytometry experiments were performed to assess the level of VLA-4 expression on tumor cell lines, and VLA-4 expression was observed on all cell lines tested (FIG. 1).).
On the technique in general: In flow cytometry, cells or beads pass a laser one at a time.

Assay [8] deals with T2, VLA-4 (alpha4beta1 integrin) on hematologic tumor cell lines (UniProt P13612 34-1032; P05556 21-798).
T2 construct: whole, on cells; also called a4β1 integrin
Description: inhibition of H929 cell adhesion to wells coated with fibronectin (FN). The procedure:
as §1
(§5) Experiments were conducted to test whether a VLA-4 antagonist can inhibit binding of tumor cells to a VLA-4 ligand. Cell lines were allowed to adhere to wells coated with fibronectin (• FN), vascular adhesion molecule-1-Ig fusion protein (▪ VCAM-Ig), or bone marrow stromal cells (▴ BMSC), in the presence of increasing concentrations of natalizumab or isotype control antibody.

Assay [9] concerns the target T2, VLA-4 (alpha4beta1 integrin) on …. Briefly: inhibition of U266 cell adhesion to wells coated with fibronectin (FN). As to the method:
as §1, §5

The target is the same in assay [10]. Briefly: flow cytometry, binding to KG1 (AML) cells. As to the method: as §4
Assay [11] has the same target. Briefly: inhibition of KG1 cell adhesion to wells coated with fibronectin (FN). As to the method:
as §5

Assay [12] shares this target. Description: flow cytometry, binding to HL60 (AML) cells. As to the method:
as §4

The target is the same in assay [13]. Briefly: flow cytometry, binding to H929 (MM) cells. The procedure: as §4
Assay [14] shares this target. Briefly: flow cytometry, binding to JM1 (CLL) cells. As to the method: as §4
The target is the same in assay [15]. Description: flow cytometry, binding to Mec1 (CLL) cells. The procedure: as §4
For assay [16] the target is unchanged. Description: inhibition of JM1 cell adhesion to wells coated with fibronectin (FN). The procedure: as §2, §5
The target is the same in assay [17]. Description: flow cytometry, binding to U266 (MM) cells. As to the method: as §4
The target is the same in assay [18]. Description: inhibition of Mec1 cell adhesion to wells coated with VCAM-Ig. The procedure:
as §2, §5

For assay [19] the target is unchanged. Briefly: inhibition of U266 cell adhesion to wells coated with VCAM-Ig. The procedure: as §1, §5
Assay [20] has the same target. Description: inhibition of Mec1 cell adhesion to wells coated with fibronectin (FN). The procedure:
as §2, §5

The target is the same in assay [21]. Briefly: cell-based or functional assay.
The target is the same in assay [22]. Briefly: inhibition of JM1 cell adhesion to wells coated with VCAM-Ig. As to the method: as §2, §5
Assay [23] shares this target. Description: inhibition of HL60 cell adhesion to wells coated with VCAM-Ig. The procedure:
as §5

The target is the same in assay [24]. Description: inhibition of H929 cell adhesion to wells coated with VCAM-Ig. The procedure:
as §1, §5

For assay [25] the target is unchanged. Briefly: inhibition of KG1 cell adhesion to wells coated with VCAM-Ig. The procedure:
as §5

Assay [26] shares this target. Briefly: inhibition of HL60 cell adhesion to wells coated with fibronectin (FN). As to the method:
as §5

Arg-Cys-Asp-TPro-Cys: the “Inhibition of VLA-4 and VLA-5 adhesion to fibronectin” value in assay [1] was “can inhibit both VLA-4 and VLA-5 adhesion to fibronectin”.
In the case of “Glu-Ile-Leu-Asp-Val (EILDV; printed: Glu-Ile-Leu-Asp-Val) [pentapeptide from the CS-1 region of fibronectin]”, the “Inhibitory activity against fibronectin-dependent cell adhesion” value (“Inhibitory activity” for short) in assay [2] was “possessed inhibitory activity”.
For the molecule Glu-Ile-Leu-Asp-Val-Pro-Ser-Thr, the “Inhibitory activity” value in assay [2] is reported as “possessed inhibitory activity”.
For the molecule “Leu-Asp-Val-Pro-Ser (LDVPS; printed: Leu-Asp-Val-Pro-Ser) [pentapeptide from the CS-1 region of fibronectin]”, in [2], the “Inhibitory activity” value was “possessed inhibitory activity”.
For Natalizumab, the “Inhibition of tumor cell binding to VLA-4 ligands at saturating levels” value in assay [3] is recorded as “inhibit binding in all cell types assayed”. Also, the “Effect on cell adhesion mediated resistance to melphalan” value in assay [4] is given as “did not have a cytoprotective effect”. In addition, the “Percentage of cells undergoing apoptosis” value in assay [5] is listed as “increase in the percentage of cells undergoing apoptosis”. Besides, in assay [6], the “Coculture-induced survival signaling through P-STAT3” value was “can be inhibited”. In addition, in [7], the “Binding to AML, CLL and MM tumor cell lines” value is “saturable binding was observed”.

B1: natalizumab (antibody, human IgG4, kappa, V domains shown)
VH: QVQLVQSGAEVKKPGASVKVSCKASGFNIKDTYIHWVRQAPGQRLEWMGRIDPANGYTKYDPKFQGRVTITADTSASTAYMELSSLRSEDTAVYYCAREGYYGNYGVYAMDYWGQGTLVTVSS
VL: DIQMTQSPSSLSASVGDRVTITCKTSQDINKYMAWYQQTPGKAPRLLIHYTSALQPGIPSRFSGSGSGRDYTFTISSLQPEDIATYYCLQYDNLWTFGQGTKVEIKR
modifications: Glutamine 1 cyclized to pyroGlutamic Acid; C-terminal Lysine is removed posttranslationally
notes: Humanized version of murine monoclonal antibody 21.6; also called AN100226; TYSABRI
As usually defined, the IC50 is the midpoint of a concentration-inhibition curve. A low value points to greater potency. The EC50 is the midpoint of the concentration-response curve. The low end stands for an effect from little substance, the high end for a need for much substance. In the case of B1, the IC50 in assay [8] came out at 0.4 nM; in assay [9] it was 0.4 nM; in assay [11], 0.1 nM; in [16], 11.6 nM; in [18], 0.22 nM; in assay [19] it was 0.26 nM. In addition, the IC50 in assay [20] turned out to be 0.39 nM; in assay [22], 0.19 nM; in assay [23] it was 0.92 nM; in assay [24], 0.45 nM; in assay [25], 0.19 nM; in [26] it was 0.5 nM. Besides, the EC50 is 0.22 nM in [10]; 0.19 nM in [12]; 0.8 nM in [13]; 0.28 nM in assay [14]; 0.11 nM in [15]; 0.3 nM in [17]. For the same molecule, the “IC50 (nM) of inhibition of H929 (MM) cell adhesion to bone marrow stromal cells (BMSC)” value in [21] is 1.74 nM. In assay [21], the “IC50 (nM) of inhibition of HL60 (AML) cell adhesion to bone marrow stromal cells (BMSC)” value is 13.7 nM. The “IC50 (nM) of inhibition of U266 (MM) cell adhesion to bone marrow stromal cells (BMSC)” value in assay [21] is 0.53 nM.
